The assay has as its target T1, His-MBP-Cdc5 T238D (S. cerevisiae, UniProt P32562 1-705, T238D).
T1 sequence (looked up): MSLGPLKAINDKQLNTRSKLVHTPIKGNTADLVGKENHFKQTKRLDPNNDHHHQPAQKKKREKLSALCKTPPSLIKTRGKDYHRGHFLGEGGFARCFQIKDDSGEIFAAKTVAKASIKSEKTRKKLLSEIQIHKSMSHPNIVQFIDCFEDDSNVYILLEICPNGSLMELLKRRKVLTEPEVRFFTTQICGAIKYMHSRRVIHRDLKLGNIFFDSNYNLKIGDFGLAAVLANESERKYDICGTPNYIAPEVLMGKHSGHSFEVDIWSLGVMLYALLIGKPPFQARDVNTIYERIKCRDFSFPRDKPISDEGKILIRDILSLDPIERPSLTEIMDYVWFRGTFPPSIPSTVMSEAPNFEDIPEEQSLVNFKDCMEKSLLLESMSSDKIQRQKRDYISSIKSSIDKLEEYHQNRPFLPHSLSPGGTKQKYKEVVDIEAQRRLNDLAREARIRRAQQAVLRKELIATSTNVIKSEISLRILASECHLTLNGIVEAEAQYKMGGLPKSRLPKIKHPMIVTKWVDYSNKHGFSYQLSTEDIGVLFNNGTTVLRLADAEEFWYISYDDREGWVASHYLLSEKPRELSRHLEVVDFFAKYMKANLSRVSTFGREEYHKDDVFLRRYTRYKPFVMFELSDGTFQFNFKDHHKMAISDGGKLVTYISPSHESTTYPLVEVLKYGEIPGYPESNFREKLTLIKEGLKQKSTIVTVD
Briefly: pull-down.

This is an account of results in doi:10.1101/2019.12.16.876623 (bioRxiv, 2019).

B1: Exo1-Flag (recombinant, untreated) (natural protein, yeast, UniProt P39875 1-702, looked up)
chain: MGIQGLLPQLKPIQNPVSLRRYEGEVLAIDGYAWLHRAACSCAYELAMGKPTDKYLQFFIKRFSLLKTFKVEPYLVFDGDAIPVKKSTESKRRDKRKENKAIAERLWACGEKKNAMDYFQKCVDITPEMAKCIICYCKLNGIRYIVAPFEADSQMVYLEQKNIVQGIISEDSDLLVFGCRRLITKLNDYGECLEICRDNFIKLPKKFPLGSLTNEEIITMVCLSGCDYTNGIPKVGLITAMKLVRRFNTIERIILSIQREGKLMIPDTYINEYEAAVLAFQFQRVFCPIRKKIVSLNEIPLYLKDTESKRKRLYACIGFVIHRETQKKQIVHFDDDIDHHLHLKIAQGDLNPYDFHQPLANREHKLQLASKSNIEFGKTNTTNSEAKVKPIESFFQKMTKLDHNPKVANNIHSLRQAEDKLTMAIKRRKLSNANVVQETLKDTRSKFFNKPSMTVVENFKEKGDSIQDFKEDTNSQSLEEPVSESQLSTQIPSSFITTNLEDDDNLSEEVSEVVSDIEEDRKNSEGKTIGNEIYNTDDDGDGDTSEDYSETAESRVPTSSTTSFPGSSQRSISGCTKVLQKFRYSSSFSGVNANRQPLFPRHVNQKSRGMVYVNQNRDDDCDDNDGKNQITQRPSLRKSLIGARSQRIVIDMKSVDERKSFNSSPILHEESKKRDIETTKSSQARPAVRSISLLSQFVYKGK
Consider B1, for which the binding result is given as “binds”.

B2: Exo1-Flag (recombinant, treated with lambda phosphatase) (natural protein, yeast, UniProt P39875 1-702, looked up)
chain: MGIQGLLPQLKPIQNPVSLRRYEGEVLAIDGYAWLHRAACSCAYELAMGKPTDKYLQFFIKRFSLLKTFKVEPYLVFDGDAIPVKKSTESKRRDKRKENKAIAERLWACGEKKNAMDYFQKCVDITPEMAKCIICYCKLNGIRYIVAPFEADSQMVYLEQKNIVQGIISEDSDLLVFGCRRLITKLNDYGECLEICRDNFIKLPKKFPLGSLTNEEIITMVCLSGCDYTNGIPKVGLITAMKLVRRFNTIERIILSIQREGKLMIPDTYINEYEAAVLAFQFQRVFCPIRKKIVSLNEIPLYLKDTESKRKRLYACIGFVIHRETQKKQIVHFDDDIDHHLHLKIAQGDLNPYDFHQPLANREHKLQLASKSNIEFGKTNTTNSEAKVKPIESFFQKMTKLDHNPKVANNIHSLRQAEDKLTMAIKRRKLSNANVVQETLKDTRSKFFNKPSMTVVENFKEKGDSIQDFKEDTNSQSLEEPVSESQLSTQIPSSFITTNLEDDDNLSEEVSEVVSDIEEDRKNSEGKTIGNEIYNTDDDGDGDTSEDYSETAESRVPTSSTTSFPGSSQRSISGCTKVLQKFRYSSSFSGVNANRQPLFPRHVNQKSRGMVYVNQNRDDDCDDNDGKNQITQRPSLRKSLIGARSQRIVIDMKSVDERKSFNSSPILHEESKKRDIETTKSSQARPAVRSISLLSQFVYKGK
modifications: dephosphorylated with lambda phosphatase
For B2, the binding result was “binds”.

B3: Exo1-Flag (recombinant, treated with CDK1-cyclin B) (natural protein, yeast, UniProt P39875 1-702, looked up)
chain: MGIQGLLPQLKPIQNPVSLRRYEGEVLAIDGYAWLHRAACSCAYELAMGKPTDKYLQFFIKRFSLLKTFKVEPYLVFDGDAIPVKKSTESKRRDKRKENKAIAERLWACGEKKNAMDYFQKCVDITPEMAKCIICYCKLNGIRYIVAPFEADSQMVYLEQKNIVQGIISEDSDLLVFGCRRLITKLNDYGECLEICRDNFIKLPKKFPLGSLTNEEIITMVCLSGCDYTNGIPKVGLITAMKLVRRFNTIERIILSIQREGKLMIPDTYINEYEAAVLAFQFQRVFCPIRKKIVSLNEIPLYLKDTESKRKRLYACIGFVIHRETQKKQIVHFDDDIDHHLHLKIAQGDLNPYDFHQPLANREHKLQLASKSNIEFGKTNTTNSEAKVKPIESFFQKMTKLDHNPKVANNIHSLRQAEDKLTMAIKRRKLSNANVVQETLKDTRSKFFNKPSMTVVENFKEKGDSIQDFKEDTNSQSLEEPVSESQLSTQIPSSFITTNLEDDDNLSEEVSEVVSDIEEDRKNSEGKTIGNEIYNTDDDGDGDTSEDYSETAESRVPTSSTTSFPGSSQRSISGCTKVLQKFRYSSSFSGVNANRQPLFPRHVNQKSRGMVYVNQNRDDDCDDNDGKNQITQRPSLRKSLIGARSQRIVIDMKSVDERKSFNSSPILHEESKKRDIETTKSSQARPAVRSISLLSQFVYKGK
modifications: phosphorylated in vitro with CDK1-cyclin B; sites not stated
As for B3, the binding result is reported as “binds”.
